Data published in US20250171542A1 (ADEPT THERAPEUTICS, published 2025).
Numbering of substitutions follows the chain as printed.

T1: canine PD-L1 (Acro Biosystems, Cat #PDL-C52H4) (canine, UniProt E2RKZ5 19-236)
T1 construct: not shown: The vendor's tag, probably a polyhistidine tag
T1 sequence: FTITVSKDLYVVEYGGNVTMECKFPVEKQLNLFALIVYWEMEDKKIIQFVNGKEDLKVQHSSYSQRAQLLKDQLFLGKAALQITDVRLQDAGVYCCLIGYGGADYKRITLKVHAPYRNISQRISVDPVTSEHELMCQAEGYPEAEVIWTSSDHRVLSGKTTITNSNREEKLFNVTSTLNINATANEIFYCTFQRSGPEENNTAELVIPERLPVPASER

T2: CD86 (Sino Biological, Cat #10699-H08H) (UniProt P42081 24-245)
T2 sequence (looked up): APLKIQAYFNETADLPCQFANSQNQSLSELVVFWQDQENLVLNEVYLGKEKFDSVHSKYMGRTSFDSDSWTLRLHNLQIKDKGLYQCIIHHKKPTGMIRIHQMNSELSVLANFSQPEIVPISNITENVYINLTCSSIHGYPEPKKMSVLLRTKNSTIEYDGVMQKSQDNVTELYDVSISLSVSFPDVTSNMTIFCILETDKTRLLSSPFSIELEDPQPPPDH

T3: BH-H2 (Sino Biological, Cat #11559-H08H) (UniProt O75144 19-258)
T3 sequence (looked up): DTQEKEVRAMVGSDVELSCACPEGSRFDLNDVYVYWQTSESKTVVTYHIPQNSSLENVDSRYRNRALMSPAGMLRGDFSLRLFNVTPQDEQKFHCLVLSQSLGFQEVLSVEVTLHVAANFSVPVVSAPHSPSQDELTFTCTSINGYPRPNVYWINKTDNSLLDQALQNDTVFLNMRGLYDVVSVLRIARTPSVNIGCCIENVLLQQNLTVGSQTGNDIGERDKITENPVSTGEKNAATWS

T4: CD80 (Sino Biological, Cat #10698-H08H) (UniProt P33681 35-242)
T4 sequence (looked up): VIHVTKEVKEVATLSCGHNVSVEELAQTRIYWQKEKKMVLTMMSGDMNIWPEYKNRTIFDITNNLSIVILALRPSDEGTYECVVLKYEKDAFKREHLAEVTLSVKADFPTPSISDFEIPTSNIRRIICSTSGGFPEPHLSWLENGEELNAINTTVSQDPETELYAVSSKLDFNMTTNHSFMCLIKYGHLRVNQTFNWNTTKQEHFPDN

T5: PD-L2 (Sino Biological, Cat #10292-H08H) (UniProt Q9BQ51 20-219)
T5 sequence (looked up): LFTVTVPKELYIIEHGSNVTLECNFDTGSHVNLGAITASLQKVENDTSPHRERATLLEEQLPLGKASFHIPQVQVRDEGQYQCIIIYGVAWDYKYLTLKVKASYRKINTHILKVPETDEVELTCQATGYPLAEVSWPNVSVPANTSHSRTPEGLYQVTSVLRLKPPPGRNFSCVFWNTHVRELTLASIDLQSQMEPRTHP

T6: B7-H3 (Sino Biological, Cat #11188-H08H) (UniProt Q5ZPR3 29-461)
T6 sequence (looked up): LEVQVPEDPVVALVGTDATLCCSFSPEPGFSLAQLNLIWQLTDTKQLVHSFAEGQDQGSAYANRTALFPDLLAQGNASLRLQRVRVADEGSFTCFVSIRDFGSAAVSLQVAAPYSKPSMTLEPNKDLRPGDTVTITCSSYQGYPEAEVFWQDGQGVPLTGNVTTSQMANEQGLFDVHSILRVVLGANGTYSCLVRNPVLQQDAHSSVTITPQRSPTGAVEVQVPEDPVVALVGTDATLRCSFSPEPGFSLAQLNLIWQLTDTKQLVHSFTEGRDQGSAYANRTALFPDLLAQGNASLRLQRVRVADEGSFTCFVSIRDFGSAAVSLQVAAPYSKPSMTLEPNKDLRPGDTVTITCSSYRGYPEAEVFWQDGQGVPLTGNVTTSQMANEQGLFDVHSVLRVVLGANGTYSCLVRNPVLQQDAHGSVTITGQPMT

B1: 27A2 (antibody, human IgG1, V domains shown)
VH: QEQLEESGGGLVQPEGSLTLTCTASGFSFSSNHYMSWVRQAPGKGLEWIGSIGVGSGITDYASWAKGRFTISKASSTTLTLQMTTLTAADTAIYFCARWTSGGGGFGLWGPGTLVTVSS
VL: QVLTQTSSPVSAAVGGTVTINCQSSQTIYSDYLFWYQQTPGQPPKLLIYQTSTLASGVPSRFKGSGSGTEFTLTISEIQCDDAATYYCQGYYSGYIWTFGGGTEVVVR
B2: 56H3 (antibody, human IgG1, V domains shown)
VH: B1 VH with E5V, G26E, S31N, H33Y, I49L, V54I, L79V
VL: B1 VL with T39K, K63S, E70Q, E77G, I78V, R108N
B3: 74F4 (antibody, human IgG1, V domains shown)
VH: QEQLEESGGGLVQPEGSLTLTCTASGFSFSGDYYMSWVRQAPGKGLEWIASIYTGSLNTYYATWAKGRFTISLTSSTTVTLQMTSLTAADTATYFCARRNKNADYGHFDLWGPGTLVTVSS
VL: YDMTQTPASVEVAVGGTVTIKCQASQSINDRLAWYQQSPGQPPKLLIYGASTLASGVPSRFKGSGSGTDFTLTISDLECADAATYYCQQGWTVSSLDNAFGGGTEVVAK
B4: 55H3/76D6 (antibody, human IgG1, V domains shown)
VH: B3 VH with A24V, I49V, T59S
VL: B3 VL with Q26E, S38K, G49A, K62R, K109M
B5: 56E5 (antibody, human IgG1, V domains shown)
VH: B3 VH with N100H
VL: B3 VL with A8G, S38T, D69E
B6: 57B10 (antibody, human IgG1, V domains shown)
VH: B3 VH with G31D, Y105W
VL: B3 VL with N29S, D30T, R31A, S38K, G49A, K62R, K109M
B7: 57F11 (antibody, human IgG1, V domains shown)
VH: B3 VH with Q3H, S17A, L73I, T74A, M83V, N100T, A103G, H107Y
VL: B3 VL with S38K, G49A, D69E, D97E
B8: 62E6 (antibody, human IgG1, V domains shown)
VH: B3 VH with G10D, Q13K, T59I
VL: B3 VL with S38K, G40R, D69E, A80V

molecular target: T7, human PD-L1-His (Sino Biological, Cat #10084-H08H) (human, UniProt Q9NZQ7 19-238); test: BLI (Gator), antibody on HFC probe, human PD-L1-His in solution
T7 construct: Bought protein; also called human PD-L1 ECD-His; recombinant human PD-L1-His protein; not shown: His tag
T7 sequence (Q9NZQ7 19-238): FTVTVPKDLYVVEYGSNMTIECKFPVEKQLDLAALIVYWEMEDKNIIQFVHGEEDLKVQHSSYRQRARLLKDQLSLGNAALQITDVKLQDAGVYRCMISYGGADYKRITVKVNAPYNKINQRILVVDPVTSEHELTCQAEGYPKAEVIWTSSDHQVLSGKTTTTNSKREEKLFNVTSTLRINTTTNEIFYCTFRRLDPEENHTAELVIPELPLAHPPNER
Description: The affinity of the binding of the exemplary anti-PD-L1 antibodies of the present disclosure was determined. Assay was performed according to the protocol recommended by Gator or Gator Plus (Gator Bio Inc.). Briefly, human PD-L1-His (Sino Biological, Cat #10084-H08H) was serially diluted 4-fold, starting at 4 μg/ml. After three times of regeneration in generation buffer (Gator Bio, Cat #120012) and neutralization of HFC probe (Gator Bio, Cat #160003), 1 μg/ml of antibody to be tested in Q buffer (Gator Bio, Cat #120010) was immobilized onto HFC probe. After a baseline step, probe immobilized with antibody was dipped into antigen solutions. The association and dissociation of antigen from antibody was measured on BLI machine Gator. Affinity was calculated using Gator Bio analysis software.
Table 22 below summarizes the binding affinity to human PD-L1 using Gator.

Binder | Kd [pM] | koff [s⁻¹] | kon [M⁻¹ s⁻¹]
B1 | 60 | 3.6e-05 | 643000
B2 | 580 | 0.000399 | 686000
B3 | 360 | 0.000238 | 648000
B4 | 640 | 0.000317 | 498000
B5 | 750 | 0.00056 | 748000
B6 | 90 | 7.7e-05 | 810000
B7 | 310 | 0.000113 | 371000
B8 | 430 | 0.000342 | 788000

molecular target: T8, cynomolgus PD-L1-His (Sino Biological, Cat. 90251-C08H) (cynomolgus, UniProt Q9NZQ7 19-238 (human entry)); test: BLI (Gator), cynomolgus PD-L1
T8 construct: Bought protein; also called Cyno PD-L1; Cynomolgus PD-L1 ECD-His; not shown: His tag
T8 sequence (Q9NZQ7 other isoform, or with tags, fused parts or gaps C08H C08H limits assumed): as the sequence (Q9NZQ7 19-238) above, with A33T, A34S, S62N, R68Q, Q82R, F173L, T185A, T192I, H215L counted along it

Binder | Kd [pM] | koff [s⁻¹] | kon [M⁻¹ s⁻¹]
B1 | 30 | 1.3e-05 | 390000
B2 | 250 | 8.7e-05 | 349000
B3 | 10 | 5e-06 | 387000
B4 | 30 | 1.1e-05 | 307000
B5 | ≤ 30 | ≤ 1e-05 | 313000
B6 | 30 | 7e-06 | 284000
B7 | 270 | 0.000101 | 373000
B8 |  |  | 313000

molecular target: T1, canine PD-L1 (Acro Biosystems, Cat …); test: ELISA

Binder | binding result
B1 | no binding
B2 | no binding
B3 | no binding
B4 | no binding
B5 | no binding
B6 | no binding
B7 | no binding
B8 | no binding

molecular target: T2, CD86 (Sino Biological, Cat #10699-H08H); test: ELISA

Binder | binding result
B1 | no binding
B2 | no binding
B3 | no binding
B4 | no binding
B5 | no binding
B6 | no binding
B7 | no binding
B8 | no binding

molecular target: T3, BH-H2 (Sino Biological, Cat #11559-H08H); test: ELISA

Binder | binding result
B1 | no binding
B2 | no binding
B3 | no binding
B4 | no binding
B5 | no binding
B6 | no binding
B7 | no binding
B8 | no binding

molecular target: T9, rat PD-L1 (Sino Biological, Cat #80450-R08H) (rat, UniProt D4AE25 19-239); test: ELISA
T9 construct: not shown: The vendor's polyhistidine tag
T9 sequence (D4AE25 entry or part of it R08H R08H limits assumed): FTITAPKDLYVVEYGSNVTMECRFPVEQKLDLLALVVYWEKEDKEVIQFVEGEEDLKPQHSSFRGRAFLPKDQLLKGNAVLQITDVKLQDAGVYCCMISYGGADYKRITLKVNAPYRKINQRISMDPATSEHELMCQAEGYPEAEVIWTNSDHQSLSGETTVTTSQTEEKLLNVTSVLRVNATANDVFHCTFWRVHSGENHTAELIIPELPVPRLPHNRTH

Binder | binding result
B1 | no binding
B2 | no binding
B3 | no binding
B4 | no binding
B5 | no binding
B6 | no binding
B7 | no binding
B8 | no binding

molecular target: T4, CD80 (Sino Biological, Cat #10698-H08H); test: ELISA

Binder | binding result
B1 | no binding
B2 | no binding
B3 | no binding
B4 | no binding
B5 | no binding
B6 | no binding
B7 | no binding
B8 | no binding

molecular target: T5, PD-L2 (Sino Biological, Cat #10292-H08H); test: ELISA

Binder | binding result
B1 | no binding
B2 | no binding
B3 | no binding
B4 | no binding
B5 | no binding
B6 | no binding
B7 | no binding
B8 | no binding

molecular target: mouse PD-L1 (Sino Biological, Cat #50010-M08H) (mouse, UniProt Q9EP73 19-238); test: ELISA
Sequence (Q9EP73 19-238 limits assumed, stated change not applied): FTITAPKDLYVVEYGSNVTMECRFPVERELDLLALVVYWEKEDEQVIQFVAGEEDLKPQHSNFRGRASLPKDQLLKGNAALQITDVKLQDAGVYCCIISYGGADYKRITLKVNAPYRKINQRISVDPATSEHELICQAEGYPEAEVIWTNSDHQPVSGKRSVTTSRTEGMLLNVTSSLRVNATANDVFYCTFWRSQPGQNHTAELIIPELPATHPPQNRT

Binder | binding result
B1 | no binding
B2 | no binding
B3 | no binding
B4 | no binding
B5 | no binding
B6 | no binding
B7 | no binding
B8 | no binding

molecular target: T6, B7-H3 (Sino Biological, Cat #11188-H08H); test: ELISA

Binder | binding result
B1 | no binding
B2 | no binding
B3 | no binding
B4 | no binding
B5 | no binding
B6 | no binding
B7 | no binding
B8 | no binding
